In patent publication US20250144228A1, “NANOBODY-DRUG ADDUCTS AND USES THEREOF” (priority 2022, published 2025):

Tests used:
[1] = system: P. falciparum merozoite surface protein 1 (MSP-1) subunits p83, p38, p42; test: ELISA of biotinylated VHHs on plate-bound MSP-1 subunits; assay type: binding, Plasmodium falciparum; settings: streptavidin-HRP and TMB
Protocol: (§1) FIGS. 13A-13D: VHH nanobodies bind specifically to Plasmodium falciparum: merozoite surface protein 1 (MSP-1). FIG. 13A: Schematic of the PfMSP-1 pro-peptide and the four inclusive subunits: p83, p30, p38, and p42. FIG. 13B: Purified […] B4, anti-p38 B8, anti-p42 A6, and anti-p42 G11 VHHs were biotinylated and these VHHs were incubated with plate bound subunits proteins as indicated. Binding ELISA was detected by using streptavidin-HRP and tetramethylbenzidine (TMB). Data are represented as optical density (OD). Error bars show SEM. FIG. 13C: Western blot of VHHs against the three PfMSP-1 subunits, the full length p190 pro-peptide, and some 3D7 lysates from −38-44 hour 3D7 schizonts. FIG. 13D: Flow cytometry on synchronized ˜38-44 hour 3D7 schizonts using fluorescently (Cy5) labeled VHHs.
(§2) Purified VHH nanobodies were biotinylated and tested for specificity toward isolated MSP-1 subunits. Anti-p83 B4, anti-p38 B8, anti-p42 A6, and anti-p42 G11 VHHs were each incubated with plate-bound p83, p38, p42, and p42, and binding to the plates was detected by an enzyme-linked immunoassay (ELISA) using streptavidin-horseradish peroxidase (HRP) and tetramethylbenzidine (TMB). […] Finally, purified VHHs were tested against live ˜38-44 hour 3D7 schizonts in a flow cytometry assay.

[2] = system: PfMSP-1 subunits, full length p190 pro-peptide; assay type: binding, Plasmodium falciparum
Protocol: as §1, with “FIG.” for “FIGS. 13A-13D: VHH nanobodies bind specifically to Plasmodium falciparum: merozoite surface protein 1 (MSP-1). FIG.”
as §2

[3] = molecular target: T1, PfMSP-1 subunits, full length p190 pro-peptide (Plasmodium falciparum, UniProt Q8I0U8); assay type: binding
T1 construct: the three PfMSP-1 subunits, the full length p190 pro-peptide
Protocol: as §1, with “FIG.” for “FIGS. 13A-13D: VHH nanobodies bind specifically to Plasmodium falciparum: merozoite surface protein 1 (MSP-1). FIG.”
as §2

MICA*002 = MICA*002 (Homo sapiens, UniProt Q29983, K148E/T47A/W37G); assay type: binding
[4] = molecular target: T2, MICB-transfected B16F10 cells (Homo sapiens, UniProt Q29980); test: Flow cytometry of transfected B16F10 melanoma cells; assay type: binding; settings: biotinylated, streptavidin-PE
T2 construct: expressed in transfected cells; host or cells: B16F10 mouse melanoma cells
T2 sequence (Q29980 23-383): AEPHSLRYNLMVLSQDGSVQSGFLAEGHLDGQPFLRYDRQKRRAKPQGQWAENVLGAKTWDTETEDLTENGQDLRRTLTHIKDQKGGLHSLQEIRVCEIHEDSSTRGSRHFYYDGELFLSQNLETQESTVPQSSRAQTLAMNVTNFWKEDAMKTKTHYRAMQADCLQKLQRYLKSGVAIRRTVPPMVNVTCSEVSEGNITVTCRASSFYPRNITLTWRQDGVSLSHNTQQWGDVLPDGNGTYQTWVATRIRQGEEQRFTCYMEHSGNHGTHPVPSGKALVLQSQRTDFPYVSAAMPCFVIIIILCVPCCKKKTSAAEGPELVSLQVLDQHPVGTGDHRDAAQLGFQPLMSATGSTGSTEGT
From the text: (§3) FIGS. 17A-17E: Development of MHC class I polypeptide-related sequence A (MICA)-specific nanobodies. FIG. 17A: Comparison of amino acid sequences of 9 MICA-specific nanobodies that were identified and cloned into a pHen6 expression vector. FIG. 17B: Immunoblots showing specific binding of biotinylated A1 and H3 anti-MICA nanobody clones for purified MICA*009 antigen in whole cell lysate. FIG. 17C: Quantification of ELISA cross-competition assays to determine binding epitopes for anti-MICA nanobodies. A decrease in intensity measured at 450 nm as compared to a single nanobody alone is indicative of binding to the same epitope. Cross-competition is shown for A1 (left) and H3 (right) anti-MICA nanobody clones. FIG. 17D: Quantification of anti-MICA nanobody binding to MICA allelic products as determined by ELISA. A significant increase in intensity measured at 450 nm as compared to uncoated ELISA control is indicative of binding. FIG. 17E: Flow cytometry of B16F10 cells transfected with empty vector, MICA, or MHC class I polypeptide-related sequence B (MICB) using A1 and H3 anti-MICA nanobody clones.
(§4) To further assess whether the isolated anti-MICA VHH nanobodies would bind to MICA on the surface of cells, A1 and H3 nanobody clones were generated against soluble, recombinant MICA*009 and cell binding was assessed by flow cytometry. Binding was assessed using B16F10 melanoma cells transfected to express either MICA or MICB, or an empty vector (EV) as a negative control. Biotinylated A1 and H3 nanobodies were labeled with streptavidin-phycoerythrin (PE) and used for cytofluorimetry of transfected B16F10 cells.

[5] = molecular target: T3, MICA-transfected B16F10 cells (Homo sapiens, UniProt Q29983); test: as above; assay type: binding; settings: biotinylated, streptavidin-PE
T3 construct: expressed in transfected cells; host or cells: B16F10 mouse melanoma cells
T3 sequence (Q29983 24-383): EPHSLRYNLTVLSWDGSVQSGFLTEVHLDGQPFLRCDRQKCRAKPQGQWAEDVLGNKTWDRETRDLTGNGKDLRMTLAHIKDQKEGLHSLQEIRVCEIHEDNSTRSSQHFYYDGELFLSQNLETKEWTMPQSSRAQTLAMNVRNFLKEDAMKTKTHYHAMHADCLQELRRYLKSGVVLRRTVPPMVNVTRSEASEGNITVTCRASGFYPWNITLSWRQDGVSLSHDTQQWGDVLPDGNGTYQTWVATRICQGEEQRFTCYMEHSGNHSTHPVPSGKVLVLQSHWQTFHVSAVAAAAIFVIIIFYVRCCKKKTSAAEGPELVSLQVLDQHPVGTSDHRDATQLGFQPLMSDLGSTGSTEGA
From the text: as §3, §4

MICA*009 = assay type: binding, human
[6] = system: empty vector (EV)-transfected B16F10 cells; assay type: binding; settings: biotinylated, streptavidin-PE
[7] = system: purified MICA*009 antigen in whole cell lysate; test: Immunoblot with biotinylated anti-MICA nanobodies; assay type: binding, human; settings: 1 μg/mL, streptavidin-HRP
MICA*008 = MICA*008 (Homo sapiens, UniProt Q29983, C59Y/G229S/K148E/K196E/M152V/Q274R/S238T/T236I/T47A/W233R); assay type: binding
mouse IgG2b = mouse IgG2b (Mus musculus, UniProt P01837); assay type: binding; settings: mouse IgG2b-coated ELISA plates

Chain of MICA*008 (Q29983 24-307 T47A/C59Y/K148E/M152V/K196E/G229S/W233R/T236I/S238T/Q274R): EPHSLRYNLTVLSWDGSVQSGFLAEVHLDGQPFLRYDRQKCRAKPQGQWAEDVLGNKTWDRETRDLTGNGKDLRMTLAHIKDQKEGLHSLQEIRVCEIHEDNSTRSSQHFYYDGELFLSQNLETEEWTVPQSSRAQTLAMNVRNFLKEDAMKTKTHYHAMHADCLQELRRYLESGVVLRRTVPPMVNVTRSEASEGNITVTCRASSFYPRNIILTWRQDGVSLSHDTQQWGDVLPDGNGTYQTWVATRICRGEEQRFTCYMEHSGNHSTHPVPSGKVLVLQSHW
Chain of MICA*002 (Q29983 24-307 W37G/T47A/K148E): as the sequence (Q29983 24-307 T47A/C59Y/K148E/M152V/K196E/G229S/W233R/T236I/S238T/Q274R) above, with W14G, Y36C, V129M, E173K, S206G, R210W, I213T, T215S, R251Q counted along it
T1 sequence (Q8I0U8 20-1699): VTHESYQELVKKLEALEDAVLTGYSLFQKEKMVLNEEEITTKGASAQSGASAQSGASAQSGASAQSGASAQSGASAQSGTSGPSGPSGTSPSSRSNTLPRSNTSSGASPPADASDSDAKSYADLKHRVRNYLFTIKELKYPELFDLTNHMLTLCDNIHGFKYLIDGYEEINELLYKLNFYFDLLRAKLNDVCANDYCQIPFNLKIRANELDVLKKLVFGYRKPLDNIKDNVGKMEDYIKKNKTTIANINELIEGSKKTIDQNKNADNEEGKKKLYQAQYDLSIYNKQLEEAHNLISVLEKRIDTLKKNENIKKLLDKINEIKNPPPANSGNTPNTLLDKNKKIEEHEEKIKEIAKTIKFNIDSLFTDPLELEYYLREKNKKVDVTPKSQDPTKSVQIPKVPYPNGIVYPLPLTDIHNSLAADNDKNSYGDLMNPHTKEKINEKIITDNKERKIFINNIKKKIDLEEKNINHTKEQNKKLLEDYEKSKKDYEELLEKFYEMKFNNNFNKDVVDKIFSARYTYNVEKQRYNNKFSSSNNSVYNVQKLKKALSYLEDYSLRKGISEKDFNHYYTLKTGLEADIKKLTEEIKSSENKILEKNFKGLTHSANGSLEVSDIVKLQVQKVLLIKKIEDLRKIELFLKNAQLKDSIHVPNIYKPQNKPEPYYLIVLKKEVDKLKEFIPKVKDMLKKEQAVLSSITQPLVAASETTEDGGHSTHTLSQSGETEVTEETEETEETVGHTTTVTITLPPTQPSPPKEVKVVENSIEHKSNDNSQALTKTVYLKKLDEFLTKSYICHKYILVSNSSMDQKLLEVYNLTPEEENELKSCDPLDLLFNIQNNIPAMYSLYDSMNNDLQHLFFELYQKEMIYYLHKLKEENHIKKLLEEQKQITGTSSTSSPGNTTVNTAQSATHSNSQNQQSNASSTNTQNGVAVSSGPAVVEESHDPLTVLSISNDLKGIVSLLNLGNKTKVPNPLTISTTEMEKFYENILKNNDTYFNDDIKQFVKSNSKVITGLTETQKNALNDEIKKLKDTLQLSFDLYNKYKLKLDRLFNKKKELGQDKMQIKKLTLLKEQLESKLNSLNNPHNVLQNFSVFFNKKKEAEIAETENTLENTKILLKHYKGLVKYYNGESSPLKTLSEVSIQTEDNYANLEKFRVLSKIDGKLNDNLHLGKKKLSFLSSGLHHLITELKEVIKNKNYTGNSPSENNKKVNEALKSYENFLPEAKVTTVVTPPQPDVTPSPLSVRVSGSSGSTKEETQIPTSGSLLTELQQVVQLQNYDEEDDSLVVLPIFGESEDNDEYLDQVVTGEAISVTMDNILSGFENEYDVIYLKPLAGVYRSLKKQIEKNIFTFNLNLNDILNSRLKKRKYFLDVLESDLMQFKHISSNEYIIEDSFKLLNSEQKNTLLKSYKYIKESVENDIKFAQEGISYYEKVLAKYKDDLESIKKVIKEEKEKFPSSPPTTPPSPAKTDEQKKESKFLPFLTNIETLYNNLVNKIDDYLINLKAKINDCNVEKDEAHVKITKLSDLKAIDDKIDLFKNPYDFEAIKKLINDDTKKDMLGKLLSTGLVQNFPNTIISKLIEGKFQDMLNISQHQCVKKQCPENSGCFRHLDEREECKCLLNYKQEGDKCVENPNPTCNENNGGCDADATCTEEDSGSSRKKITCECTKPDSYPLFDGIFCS

B1: Anti-p83 B4: VHH specific for P. falciparum MSP-1 p83, SEQ ID NO: 12 (protein)
VHH: QLQLVESGGGLAQAGGSLRLSCAASGRTSSTKPMGWFRQAPGLEREFVASISWLGGSTLYSDSVKGRFTISRDNAKNTVYLQMNSLKSEDTAVYYCAGGTSAYSGRDSSRYEYWGQGTQVTVSSLPETGGHHHHHH
[1]
  binding to plate-bound MSP-1 subunits (ELISA): bind specifically to one subunit
[2]
  binding to MSP-1 subunits and pro-peptide p190 (gel electrophoresis / Western blot): bind to one subunit of MSP-1 and to the MSP-1 pro-peptide (p190), but not to any other subunit
[3]
  binding to lysate from ˜38-44 hour 3D7 schizonts: observed to bind

B2: A1: VHH specific for MICA, SEQ ID NO: 19 (protein)
VHH: MAQVQLVESGGGLVQPGGSLRLSCAASGFTLDYYDIGWFRQAPGKEREGVSCITSSDGSTYYADSVKGRFTISRDNAKNTVYLQMNSLKPEDTAVYYCAADCTKPQWKSKTEAWGQGTQVTVSSGGLPETGGHHHHHH
MICA*002
  binding to MICA variant (ELISA): not observed to bind
[4]
  staining of transfected cells: neither nanobody clone stained
[5]
  staining of transfected cells: robust staining
MICA*009
  binding to MICA variant (ELISA): observed to bind
[6]
  staining of transfected cells: neither nanobody clone stained
[7]
  luminescent signal on immunoblots: strong and specific luminescent signal
MICA*008
  binding to MICA variant (ELISA): observed to bind

B3: VHHkappa: commercially available anti-mouse kappa chain VHH (nanobody clone TP1170), SEQ ID NO: 1 (protein)
VHH: QVQLVESGGGWVQPGGSLRLSCAASGFTFSDTAMMWVRQAPGKGREWVAAIDTGGGYTYYADSVKGRFTISRDNAKNTLYLQMNSLKPEDTARYYCAKTYSGNYYSNYTVANYGTTGRGTLVTVSSGG
Mouse IgG2b
  binding to mouse IgG2b (in words): nanomolar affinity

B4: anti-p42 A6: VHH specific for P. falciparum MSP-1 p42, SEQ ID NO: 7 (protein)
VHH: QVQLVESGGGLVQAGGSLRLSCAASARTFSYYGAAWFRQAPGKEREFVAAVSWNGDDTYYADSVKGRFTISRDNTKNTVSLQMNALKPEDTAVYYCEAAAYGRDWRQSANYVYWGQGTQVTVSSLPETGGHHHHHH
[1]
  binding to plate-bound MSP-1 subunits (ELISA): bind specifically to one subunit
[2]
  binding to MSP-1 subunits and pro-peptide p190 (gel electrophoresis / Western blot): bind to one subunit of MSP-1 and to the MSP-1 pro-peptide (p190), but not to any other subunit

B5: anti-p42 G11: VHH specific for P. falciparum MSP-1 p42, SEQ ID NO: 16 (protein)
VHH: QVQLVETGGGLVQAGGSLRLSCVVSGRSLILYGMGWFRQAPGKEREFVAGIVWNGGWTYYADSVKGRFTISRDTAKNTVYLQMNSLKPEDTAVYSCAAGPGDGRRRVAPAEYNYWGQGTQVTVSSLPETGGHHHHHH
[1]
  binding to plate-bound MSP-1 subunits (ELISA): bind specifically to one subunit
[2]
  binding to MSP-1 subunits and pro-peptide p190 (gel electrophoresis / Western blot): bind to one subunit of MSP-1 and to the MSP-1 pro-peptide (p190), but not to any other subunit

B6: H3: VHH specific for MICA, SEQ ID NO: 24 (protein)
VHH: MAQVQLVETGGGLVQAGGSLRLSCAASGRTFSSYAMGWFRQAPGKEREFVAGISWSGGSTYYGDSVKGRFTISRDNAKNTVYLLMNSLKPEDTAVYYCAADLVRSYGSSWPSLFQFRNPEDVQDGMDYWGKGTLVTVSSGGLPETGGHHHHHH
MICA*002
  binding to MICA variant (ELISA): not observed to bind
[4]
  staining of transfected cells: neither nanobody clone stained
[5]
  staining of transfected cells: robust staining
MICA*009
  binding to MICA variant (ELISA): observed to bind
[6]
  staining of transfected cells: neither nanobody clone stained
[7]
  luminescent signal on immunoblots: strong and specific luminescent signal
MICA*008
  binding to MICA variant (ELISA): observed to bind
